These results are taken from IntAct's records for PubMed 29892012.

B1: Keratin, type I cuticular Ha8 (Homo sapiens), O76015 (parent)
chain: MTSSYSSSSCPLGCTMAPGARNVSVSPIDIGCQPGAEANIAPMCLLANVAHANRVRVGSTPLGRPSLCLPPTCHTACPLPGTCHIPGNIGICGAYGENTLNGHEKETMQFLNDRLANYLEKVRQLEQENAELEATLLERSKCHESTVCPDYQSYFHTIEELQQKILCSKAENARLIVQIDNAKLAADDFRIKLESERSLRQLVEADKCGTQKLLDDATLAKADLEAQQESLKEEQLSLKSNHEQEVKILRSQLGEKLRIELDIEPTIDLNRVLGEMRAQYEAMLETNRQDVEQWFQAQSEGISLQDMSCSEELQCCQSEILELRCTVNALEVERQAQHTLKDCLQNSLCEAEDRFGTELAQMQSLISNVEEQLSEIRADLERQNQEYQVLLDVKTRLENEIATYRNLLESEDCKLPCNPCSTSPSCVTAPCAPRPSCGPCTTCGPTCGASTTGSRF
partner: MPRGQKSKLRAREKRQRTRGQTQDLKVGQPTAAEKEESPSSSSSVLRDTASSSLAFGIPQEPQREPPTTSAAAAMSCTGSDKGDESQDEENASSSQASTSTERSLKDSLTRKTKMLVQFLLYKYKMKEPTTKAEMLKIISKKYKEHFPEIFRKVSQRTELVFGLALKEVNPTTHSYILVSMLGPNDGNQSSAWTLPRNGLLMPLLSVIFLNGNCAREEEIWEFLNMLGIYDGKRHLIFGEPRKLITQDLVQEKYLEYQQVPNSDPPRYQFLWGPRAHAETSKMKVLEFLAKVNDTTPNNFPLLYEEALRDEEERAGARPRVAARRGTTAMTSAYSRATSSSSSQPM
B2: FAST kinase domain-containing protein 5, mitochondrial (Homo sapiens), Q7L8L6 (parent)
chain: MAATLKSLKLVRYRAFCSPSAFGAVRSVSYWNVSSTQHGGQDPPEHISLCHSAKKVKNICSTFSSRRILTTSSAHPGLEFSKTSSSKASTLQLGSPRATGVDEEDVEVFDSFENMRVFLQLRPEYRVHSYNASETSQLLSVSEGELILHKVRVNQNNLQAQVIVDYLCKLSSLPAEQHPVLLGSTSFALLCQLSVKKIQLFDTQDLINVLKAFVILGIPHSHSMLDVYETKCCHQVWEMNMDQLLLVADLWRYLGRKVPRFLNIFSSYLNLHWKDLSLSQLVHLIYVIGENRQVSQDLMQKLESLILKYIDLINLEEVGTICLGFFKSSTNLSEFVMRKIGDLACANIQHLSSRSLVNIVKMFRFTHVDHINFMKQIGEIAPQRIPSLGVQGVMHLTLYCSALRFLNEGVMNAVAASLPPRVAHCRSKDVAKILWSFGTLNYKPPNAEEFYSSLISEIHRKMPEFNQYPEHLPTCLLGLAFLEYFPVELIDFALSPGFVRLAQERTKFDLLKELYTLDGTVGIECPDYRGNRLSTHLQQEGSELLWYLAEKDMNSKPEFLETVFLLETMLGGPQYVKHHMILPHTRSSDLEVQLDVNLKPLPFNREATPAENVAKLRLEHVGVSLTDDLMNKLLKGKARGHFQGKTESEPGQQPMELENKAAVPLGGFLCNVADKSGAMEMAGLCPAACMQTPRMKLAVQFTNRNQYCYGSRDLLGLHNMKRRQLARLGYRVVELSYWEWLPLLKRTRLEKLAFLHEKVFTSAL
partner: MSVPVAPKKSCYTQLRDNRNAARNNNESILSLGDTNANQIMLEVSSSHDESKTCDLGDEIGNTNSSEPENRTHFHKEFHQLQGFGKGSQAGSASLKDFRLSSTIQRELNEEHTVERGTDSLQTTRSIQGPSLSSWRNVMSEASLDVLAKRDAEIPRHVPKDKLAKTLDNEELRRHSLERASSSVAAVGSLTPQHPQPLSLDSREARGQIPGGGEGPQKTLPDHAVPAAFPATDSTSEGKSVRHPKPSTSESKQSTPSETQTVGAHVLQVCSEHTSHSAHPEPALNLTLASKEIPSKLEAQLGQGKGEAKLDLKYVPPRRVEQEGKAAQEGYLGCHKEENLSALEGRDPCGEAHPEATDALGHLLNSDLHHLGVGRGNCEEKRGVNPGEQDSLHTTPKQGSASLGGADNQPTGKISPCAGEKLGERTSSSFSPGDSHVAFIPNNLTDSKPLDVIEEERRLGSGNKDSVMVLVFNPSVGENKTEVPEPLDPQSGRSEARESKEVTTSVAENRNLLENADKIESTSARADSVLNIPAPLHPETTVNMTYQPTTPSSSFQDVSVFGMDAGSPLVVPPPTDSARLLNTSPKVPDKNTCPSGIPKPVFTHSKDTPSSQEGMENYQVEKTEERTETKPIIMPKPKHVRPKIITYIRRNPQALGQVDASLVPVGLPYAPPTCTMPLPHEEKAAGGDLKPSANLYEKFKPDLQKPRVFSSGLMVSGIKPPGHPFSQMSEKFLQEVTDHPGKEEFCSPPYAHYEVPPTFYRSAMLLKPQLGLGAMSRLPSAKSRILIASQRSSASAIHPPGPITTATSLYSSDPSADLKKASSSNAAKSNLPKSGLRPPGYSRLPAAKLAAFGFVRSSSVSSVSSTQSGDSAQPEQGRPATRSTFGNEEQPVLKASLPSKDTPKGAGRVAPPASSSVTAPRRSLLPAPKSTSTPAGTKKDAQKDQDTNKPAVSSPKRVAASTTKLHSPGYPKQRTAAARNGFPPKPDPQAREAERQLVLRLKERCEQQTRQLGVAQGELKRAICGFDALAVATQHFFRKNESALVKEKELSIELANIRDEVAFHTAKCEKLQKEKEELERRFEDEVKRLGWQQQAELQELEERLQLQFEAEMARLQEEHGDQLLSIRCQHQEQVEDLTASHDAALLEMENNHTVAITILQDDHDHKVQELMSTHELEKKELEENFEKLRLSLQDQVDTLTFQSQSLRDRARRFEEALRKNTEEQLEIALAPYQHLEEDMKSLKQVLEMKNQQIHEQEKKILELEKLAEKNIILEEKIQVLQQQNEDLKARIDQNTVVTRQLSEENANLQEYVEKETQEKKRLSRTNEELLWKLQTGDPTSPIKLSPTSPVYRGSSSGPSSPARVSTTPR
B3: Pleckstrin homology domain-containing family G member 2 (Homo sapiens), Q9H7P9 (parent)
chain: MPEGAQGLSLSKPSPSLGCGRRGEVCDCGTVCETRTAPAAPTMASPRGSGSSTSLSTVGSEGDPAPGPTPACSASRPEPLPGPPIRLHLSPVGIPGSARPSRLERVAREIVETERAYVRDLRSIVEDYLGPLLDGGVLGLSVEQVGTLFANIEDIYEFSSELLEDLENSSSAGGIAECFVQRSEDFDIYTLYCMNYPSSLALLRELSLSPPAALWLQERQAQLRHSLPLQSFLLKPVQRILKYHLLLQELGKHWAEGPGTGGREMVEEAIVSMTAVAWYINDMKRKQEHAARLQEVQRRLGGWTGPELSAFGELVLEGAFRGGGGGGPRLRGGERLLFLFSRMLLVAKRRGLEYTYKGHIFCCNLSVSESPRDPLGFKVSDLTIPKHRHLLQAKNQEEKRLWIHCLQRLFFENHPASIPAKAKQVLLENSLHCAPKSKPVLEPLTPPLGSPRPRDARSFTPGRRNTAPSPGPSVIRRGRRQSEPVKDPYVMFPQNAKPGFKHAGSEGELYPPESQPPVSGSAPPEDLEDAGPPTLDPSGTSITEEILELLNQRGLRDPGPSTHDIPKFPGDSQVPGDSETLTFQALPSRDSSEEEEEEEEGLEMDERGPSPLHVLEGLESSIAAEMPSIPCLTKIPDVPNLPEIPSRCEIPEGSRLPSLSDISDVFEMPCLPAIPSVPNTPSLSSTPTLSCDSWLQGPLQEPAEAPATRRELFSGSNPGKLGEPPSGGKAGPEEDEEGVSFTDFQPQDVTQHQGFPDELAFRSCSEIRSAWQALEQGQLARPGFPEPLLILEDSDLGGDSGSGKAGAPSSERTASRVRELARLYSERIQQMQRAETRASANAPRRRPRVLAQPQPSPCLPQEQAEPGLLPAFGHVLVCELAFPLTCAQESVPLGPAVWVQAAIPLSKQGGSPDGQGLHVSNLPKQDLPGIHVSAATLLPEQGGSRHVQAPAATPLPKQEGPLHLQVPALTTFSDQGHPEIQVPATTPLPEHRSHMVIPAPSTAFCPEQGHCADIHVPTTPALPKEICSDFTVSVTTPVPKQEGHLDSESPTNIPLTKQGGSRDVQGPDPVCSQPIQPLSWHGSSLDPQGPGDTLPPLPCHLPDLQIPGTSPLPAHGSHLDHRIPANAPLSLSQELPDTQVPATTPLPLPQVLTDIWVQALPTSPKQGSLPDIQGPAAAPPLPEPSLTDTQVQKLTPSLEQKSLIDAHVPAATPLPERGGSLDIQGLSPTPVQTTMVLSKPGGSLASHVARLESSDLTPPHSPPPSSRQLLGPNAAALSRYLAASYISQSLARRQGPGGGAPAASRGSWSSAPTSRASSPPPQPQPPPPPARRLSYATTVNIHVGGGGRLRPAKAQVRLNHPALLASTQESMGLHRAQGAPDAPFHM

The first assay covers variants of B1. As to conditions: with magb4_human MAGEB4, O15481.
As to N270K, the “effect of a mutation on the interaction” value is “with no effect”.

A further assay covers variants of B1. As to conditions: with magb4_human MAGEB4, O15481. This is another data set of the same source.
Regarding D306A, the “effect of a mutation on the interaction” value is listed as “with no effect”.

Variants of B2 are the subject of the next assay. To be noted: with mtus2_human MTUS2, Q5JR59.
On to E483D, for which the “effect of a mutation on the interaction” value is on record as “with no effect”.

The variants in the next assay derive from B3. To be noted: with actn3_human ACTN3, Q08043.
Chain of actn3_human ACTN3, Q08043 (Q08043 whole entry): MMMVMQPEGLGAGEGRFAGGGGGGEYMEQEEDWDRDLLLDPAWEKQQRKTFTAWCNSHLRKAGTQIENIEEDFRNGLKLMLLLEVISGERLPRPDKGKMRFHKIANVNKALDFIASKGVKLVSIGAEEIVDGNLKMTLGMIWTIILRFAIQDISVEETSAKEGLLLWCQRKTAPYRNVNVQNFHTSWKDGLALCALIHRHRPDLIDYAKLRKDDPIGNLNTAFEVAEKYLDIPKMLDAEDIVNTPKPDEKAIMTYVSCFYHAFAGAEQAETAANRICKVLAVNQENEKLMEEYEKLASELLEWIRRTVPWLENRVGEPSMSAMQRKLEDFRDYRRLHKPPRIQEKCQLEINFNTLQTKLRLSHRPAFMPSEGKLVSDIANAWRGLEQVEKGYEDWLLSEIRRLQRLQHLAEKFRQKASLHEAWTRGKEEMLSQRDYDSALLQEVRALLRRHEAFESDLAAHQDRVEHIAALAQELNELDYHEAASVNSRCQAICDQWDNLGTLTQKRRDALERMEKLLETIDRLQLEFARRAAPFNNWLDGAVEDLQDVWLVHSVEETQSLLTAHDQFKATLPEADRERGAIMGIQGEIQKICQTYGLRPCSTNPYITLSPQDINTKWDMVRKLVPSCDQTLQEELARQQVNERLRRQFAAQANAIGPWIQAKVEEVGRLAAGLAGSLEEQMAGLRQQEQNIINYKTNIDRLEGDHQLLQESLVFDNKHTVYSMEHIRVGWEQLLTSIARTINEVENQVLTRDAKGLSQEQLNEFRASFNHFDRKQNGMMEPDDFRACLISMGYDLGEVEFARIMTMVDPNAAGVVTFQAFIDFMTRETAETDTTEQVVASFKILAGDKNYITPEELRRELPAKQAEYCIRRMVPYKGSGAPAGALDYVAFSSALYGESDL
Consider V1248I, for which the “effect of a mutation on the interaction” value is “with no effect”.
